In patent US10543284B2, “Anti-c-Met antibody and anti-c-Met antibody-cytotoxic drug conjugate and pharmaceutical use thereof” (Suzhou Suncadia Biopharmaceuticals Co., Ltd., priority 2015, dated 2020):

How the values were obtained:
H441 cells = assay: Agonist test: H441 cell migration; format: cell-based, human; details: Antibody 20 μg/ml; migration affected by HGF (200 ng/ml) set as 100%
Source text: If anti c-Met antibodies have agonist activity, the migration ability of cells could be affected. The H441 cell line expressing c-Met is used in the invention to evaluate the ability of c-Met antibodies to affect cell migration. H441 cells (ATCC, Cat No.: HTB-174) were resuspended to 500,000 cells/ml in RPMI 1640 medium (GIBCO, Cat No.: 11835-030) which contains 10% (v/v) FBS (GIBCO, Cat No.: 10099-141) and penicillin-streptomycin (GIBCO, Cat No.: 15070-063). The resuspended H441 cells were added to a 12-well culture plate (Costar, Cat No. 3513) at 1 ml/well, and were cultured for 3 days at 37° C. in 5% CO2. Cells were washed twice with PBS, and RPMI 1640 medium containing 0.5% FBS was added, and the plate was cultured for 16 hours at 37° C. in 5% CO2. The bottom of each well was scratched with 5 ml tips, and the plate was washed once with medium containing low concentration of FBS, and 1 ml of RPMI 1640 medium containing a low concentration of serum was added. The plate was marked, photos were taken for randomly selected scratch areas under an inverted microscope at 4× magnification. This time was set as the starting point. […] The percentage of cell migration was measured as the migration distance relative to the starting point divided by the migration distance of the test group relative to the starting point, and then multiplied by 100.

[1] = molecular target: T1, cell line MKN45, which overexpresses c-Met (Homo sapiens, UniProt P08581); assay: FACS binding activity with MKN45 cells; details: Table 6
T1 construct: host or cells: MKN45
Experimental: A FACS method was used to detect the binding activity of c-Met humanized antibodies with the cell line MKN45, which overexpresses c-Met. […] The plate was incubated for 1 hour at 4° C. FACS buffer (PBS comprising 2.5% (v/v) FBS (Hyclone, Cat: SH30256.01B)) was added. The plate was centrifuged under 4° C. at 1300 rmp for 4 minutes, and the supernatant was discarded. This procedure was repeated three times. 100 μl of secondary antibodies (Fluorescence labeled goat-anti-mouse secondary antibodies with 1:200 dilution, Biolegend, Cat No. 405307; Fluorescence labeled anti-human secondary antibody with 1:30 dilution, Biolegend, Cat No. 409304) were added to each well, and the plate was incubated for 1 hour at 4° C. FACS buffer was added, the plate was centrifuged under 4° C. at 1300 rpm for 4 minutes, the supernatants were discarded; and this procedure was repeated three times. 200 μl FACS buffer was added to resuspend the cells, and the samples were prepared and detected by flow cytometry (BD FACS Array).

[2] = tested on: c-Met tyrosine residue 1349; assay: Agonist test: c-Met phosphorylation in A549 cells; format: cell-based, human; details: Antibody 20 μg/ml; activation by HGF (200 ng/ml) set as 100%
Experimental: The binding of HGF to c-Met activates both tyrosine phosphorylation of the c-Met molecule and the c-Met signaling pathway. Therefore, the activation of c-Met by HGF was used as a positive control of the agonist experiment, and human lung cancer cell line […] was used to evaluate the induced phophorylation of c-Met tyrosine residue 1349.
A549 cells were suspended in solution containing Ham's F12K, 2 mM glutamine (Invitrogen, #21127-022), and 10% (v/v) FBS (GIBCO, #10099141). 0.2 mL of cell suspension was taken and added to a 96-well plate (Corning, #3599), and the cell concentration was 60000 cells/well. The plate was incubated for 24 hours under 5% CO2 at 37° C. After 24 hours, the media in the 96-well plate was discarded, and 100 μl low serum medium (Ham's F12K+2 mM glutamine+0.5% FBS) was added. The cells were starved for 6 hours under 5% CO2 at 37° C. Antibodies were diluted using the above low serum medium to a final concentration of 20 μg/ml. The HGF concentration in the positive control was 200 ng/ml. The plate was incubated for 15 minutes at 37° C. […] After cell lysis, c-Met tyrosine phosphorylation was detected by ELISA. […] Data was read by a […] microplate reader (Supplier: Moleculer Devices; Model: MNR0643; Equip ID: TMRP001). […]

T1 sequence (P08581 25-1390): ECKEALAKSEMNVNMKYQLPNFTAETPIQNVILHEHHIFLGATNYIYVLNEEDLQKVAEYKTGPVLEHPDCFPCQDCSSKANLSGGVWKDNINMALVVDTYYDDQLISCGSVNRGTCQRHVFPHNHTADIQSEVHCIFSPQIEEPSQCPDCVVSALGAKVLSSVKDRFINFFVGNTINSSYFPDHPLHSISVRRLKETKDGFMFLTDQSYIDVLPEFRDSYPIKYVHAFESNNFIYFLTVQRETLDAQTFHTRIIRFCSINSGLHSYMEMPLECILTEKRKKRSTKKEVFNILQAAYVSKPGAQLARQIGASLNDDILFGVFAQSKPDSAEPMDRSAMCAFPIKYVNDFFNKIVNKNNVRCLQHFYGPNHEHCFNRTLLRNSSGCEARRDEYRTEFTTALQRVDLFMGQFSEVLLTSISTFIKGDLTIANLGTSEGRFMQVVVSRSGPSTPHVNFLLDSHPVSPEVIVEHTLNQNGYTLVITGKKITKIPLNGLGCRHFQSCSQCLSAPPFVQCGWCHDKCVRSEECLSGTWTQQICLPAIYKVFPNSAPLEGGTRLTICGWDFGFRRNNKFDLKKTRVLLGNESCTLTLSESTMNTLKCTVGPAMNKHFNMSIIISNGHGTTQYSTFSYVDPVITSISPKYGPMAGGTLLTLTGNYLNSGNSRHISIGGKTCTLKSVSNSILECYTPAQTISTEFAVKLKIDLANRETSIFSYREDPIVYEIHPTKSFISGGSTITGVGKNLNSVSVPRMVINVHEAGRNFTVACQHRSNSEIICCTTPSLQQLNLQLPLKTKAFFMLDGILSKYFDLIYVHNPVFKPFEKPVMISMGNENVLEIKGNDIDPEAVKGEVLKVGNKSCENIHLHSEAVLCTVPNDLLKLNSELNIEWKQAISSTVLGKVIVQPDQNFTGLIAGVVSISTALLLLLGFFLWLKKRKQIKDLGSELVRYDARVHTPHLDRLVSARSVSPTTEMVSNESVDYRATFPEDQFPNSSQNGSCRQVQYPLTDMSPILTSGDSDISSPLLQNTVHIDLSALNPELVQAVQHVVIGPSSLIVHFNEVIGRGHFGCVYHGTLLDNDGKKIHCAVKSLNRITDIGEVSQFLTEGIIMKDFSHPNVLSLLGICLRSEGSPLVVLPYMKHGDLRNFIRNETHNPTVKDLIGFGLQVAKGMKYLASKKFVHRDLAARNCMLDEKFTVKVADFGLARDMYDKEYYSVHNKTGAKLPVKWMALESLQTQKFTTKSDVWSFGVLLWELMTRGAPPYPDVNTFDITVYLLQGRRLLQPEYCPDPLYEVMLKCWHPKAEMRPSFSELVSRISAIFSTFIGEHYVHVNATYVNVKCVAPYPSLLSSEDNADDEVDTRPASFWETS

B1: Ab-9: humanized anti c-Met antibody: heavy chain sequence of SEQ ID NO: 23 and light chain sequence of SEQ ID NO: 26 (antibody)
heavy: QVTLKESGPVLVKPTETLTLTCTVSGFSLPNYGVHWVRQPPGKALEWLAVIWSGGSTNYAAAFVSRLRISKDTSKSQVVFTMNNMDPVDTATYYCARNHDNPYNYAMDYWGQGTTVTVSSASTKGPSVFPLAPCSRSTSESTAALGCLVKDYFPEPVTVSWNSGALTSGVHTFPAVLQSSGLYSLSSVVTVPSSNFGTQTYTCNVDHKPSNTKVDKTVERKCCVECPPCPAPPVAGPSVFLFPPKPKDTLMISRTPEVTCVVVDVSHEDPEVQFNWYVDGVEVHNAKTKPREEQFNSTFRVVSVLTVVHQDWLNGKEYKCKVSNKGLPAPIEKTISKTKGQPREPQVYTLPPSREEMTKNQVSLTCLVKGFYPSDIAVEWESNGQPENNYKTTPPMLDSDGSFFLYSKLTVDKSRWQQGNVFSCSVMHEALHNHYTQKSLSLSPGK
light: DIVLTQSPASLAVSPGQRATITCRANKSVSTSTYNYLHWYQQKPGQPPKLLIYLASNLASGVPARFSGSGSGTDFTLTINPVEANDTANYYCQHSRDLPPTFGQGTKLEIKRTVAAPSVFIFPPSDEQLKSGTASVVCLLNNFYPREAKVQWKVDNALQSGNSQESVTEQDSKDSTYSLSSTLTLSKADYEKHKVYACEVTHQGLSSPVTKSFNRGEC
modifications: Ab-9 heavy chain; Ab-9 light chain
H441 cells
  H441 migration (%): 53%
[1]
  EC50: 1.6 nM
[2]
  Activation of c-Met phosphorylation (%): 29.9%
